Article PMC8420505 (2021)

B1: Clec4g (protein)
chain: MNTGEYNKLGSAIEEVSRGQLGRWECYKQRLFFLVLALLVATVLWALILSTLLSSASSKLRVLLSHQDLLRTNASEQKMTLSSLKDDIGACRNCCSVTKAQLQTTLAEFKDIQAKLMEQESILKELQERVTQDLAKASRDRENIRSELFQALEAVKRQNSSCEQCPPSWLPFQGSCYYFSETQATWDTAQSYCGGQGAHLVIVRGLNEQGFLSQHTRGRGYWLGLRAVRHLNKIQGYRWVDGASLNFSHWNSGEPNDSRGHEDCIMMLHSGLWNDAPCTNERDGWICEKRSSCY
B2: CD209c (protein)
chain: MRMHTRLQFLKRVSNVAYSHGQEQAKKEKVYKEMTQLKSQINRLCRPCPWDWTVFQGNCYFFSKFQQNWNDSVNACRKLDAQLVVIKSDDEQSFLQQTSKEKGYAWMGLSDLKHEGRWHWVDGSHLLFSFMKYWNKGEPNNEWEEDCAEFRGDGWNDAPCTIKKYWICKKSAMSCTEK

Biological target: Spike (SARS-CoV-2, UniProt P0DTC2)
Experiment: SPR

Binder	Kd [µM]
B1	1.6
B2	1
